Reference: patent publication US20100240033A1 (INSTITUT NATIONAL DE LA SANTE ET DE LA RECHERCHE MEDICAL …, published 2010)
Substitutions are numbered along the chain they refer to.

Experiments:
[1] = biological target: T1, human prolactin receptor mutant I76V (human, UniProt P16471 25-622); test: radioligand competition ([125I]-hPRL vs unlabeled hPRL) on homogenates of stably transfected HEK 293 cells, Scatchard analysis
T1 construct: Full-length mutant receptor stably expressed in HEK 293 cells; also called 176V [sic]; mutant 76
T1 sequence: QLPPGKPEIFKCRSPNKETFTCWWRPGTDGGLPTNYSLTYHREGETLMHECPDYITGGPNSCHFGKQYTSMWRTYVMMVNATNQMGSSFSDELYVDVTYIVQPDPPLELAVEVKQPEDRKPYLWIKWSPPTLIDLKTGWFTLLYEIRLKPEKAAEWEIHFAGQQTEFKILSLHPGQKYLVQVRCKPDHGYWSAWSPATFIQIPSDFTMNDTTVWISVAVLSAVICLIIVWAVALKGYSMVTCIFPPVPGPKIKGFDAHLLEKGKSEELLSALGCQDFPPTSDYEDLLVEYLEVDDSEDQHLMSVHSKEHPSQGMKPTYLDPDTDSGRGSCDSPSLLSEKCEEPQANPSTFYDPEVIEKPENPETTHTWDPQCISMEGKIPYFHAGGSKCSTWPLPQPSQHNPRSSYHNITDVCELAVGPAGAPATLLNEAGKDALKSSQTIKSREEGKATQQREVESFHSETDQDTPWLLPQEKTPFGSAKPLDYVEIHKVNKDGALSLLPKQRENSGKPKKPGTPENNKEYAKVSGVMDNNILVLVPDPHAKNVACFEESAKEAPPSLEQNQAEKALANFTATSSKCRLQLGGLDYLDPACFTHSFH
Method: (§1) Binding affinities of mutated PRLR for hPRL were determined using cell homogenates of stably transfected HEK 293, following a procedure previously described (KINET et al., J Biol Chem, 274, 26033-26043, 1999). Briefly, recombinant hPRL, produced in bacteria E. coli using the pT7L expression vector, and purified as described previously (PARIS et al., Biotechnol Appl Biochem, 12, 436-449, 1990), was iodinated using the Iodogen method, and its specific activity was in the range of 4-5 μCi/μg. Binding assays were performed overnight at room temperature using 150-300 μg cell homogenate protein in the presence of 20,000-30,000 cpm [¹²⁵I]-hPRL and increasing concentrations of unlabeled hPRL (competitor). Scatchard analysis was performed to determine the binding affinity of mutated PRLR and the number of PRLR per cell in stable clones or populations.

[2] = biological target: T2, wild-type human prolactin receptor (PRLR), isoform 1 (human, UniProt P16471 25-622); test: as above
T2 construct: Full-length receptor stably expressed in HEK 293 cells; Functional assays in HEK 293 and Ba/F3 cells; also called WT PRLR; hPRLR
T2 sequence: T1 sequence with V76I
Method: as §1

[3] = biological target: T1, human prolactin receptor mutant I76V; test: cell-based or functional assay
[4] = biological target: T2, wild-type human prolactin receptor …; test: cell-based or functional assay

B1: recombinant human prolactin (hPRL) (ligand, UniProt P01236 29-227, looked up)
chain: LPICPGGAARCQVTLRDLFDRAVVLSHYIHNLSSEMFSEFDKRYTHGRGFITKAINSCHTSSLATPEDKEQAQQMNQKDFLSLIVSILRSWNEPLYHLVTEVRGMQEAPEAILSKAVEIEEQTKRLLEGMELIVSQVHPETKENEIYPVWSGLPSLQMADEESRLSAYYNLLHCLRRDSHKIDNYLKLLKCRIIHNNNC
modifications: tracer form iodinated (125I, Iodogen method); unlabeled hPRL used as competitor
notes: Recombinant hPRL from bacteria; also called WT hPRL; [125I]-hPRL
Kd [1]: 0.44 nM
Kd [2]: 0.64 nM
fold induction of LHRE-luciferase activity by PRL (transient transfection, HEK 293) [3]: 5 fold
fold stimulation of LHRE-luciferase activity induced by PRL (stable HEK 293 clones, 1 ug/ml PRL) [4]: 8 fold
